B1: Unconventional myosin-VI (Homo sapiens), Q9UM54 (parent)
chain: MEDGKPVWAPHPTDGFQMGNIVDIGPDSLTIEPLNQKGKTFLALINQVFPAEEDSKKDVEDNCSLMYLNEATLLHNIKVRYSKDRIYTYVANILIAVNPYFDIPKIYSSEAIKSYQGKSLGTRPPHVFAIADKAFRDMKVLKMSQSIIVSGESGAGKTENTKFVLRYLTESYGTGQDIDDRIVEANPLLEAFGNAKTVRNNNSSRFGKFVEIHFNEKSSVVGGFVSHYLLEKSRICVQGKEERNYHIFYRLCAGASEDIREKLHLSSPDNFRYLNRGCTRYFANKETDKQILQNRKSPEYLKAGSMKDPLLDDHGDFIRMCTAMKKIGLDDEEKLDLFRVVAGVLHLGNIDFEEAGSTSGGCNLKNKSAQSLEYCAELLGLDQDDLRVSLTTRVMLTTAGGTKGTVIKVPLKVEQANNARDALAKTVYSHLFDHVVNRVNQCFPFETSSYFIGVLDIAGFEYFEHNSFEQFCINYCNEKLQQFFNERILKEEQELYQKEGLGVNEVHYVDNQDCIDLIEAKLVGILDILDEENRLPQPSDQHFTSAVHQKHKDHFRLTIPRKSKLAVHRNIRDDEGFIIRHFAGAVCYETTQFVEKNNDALHMSLESLICESRDKFIRELFESSTNNNKDTKQKAGKLSFISVGNKFKTQLNLLLDKLRSTGASFIRCIKPNLKMTSHHFEGAQILSQLQCSGMVSVLDLMQGGYPSRASFHELYNMYKKYMPDKLARLDPRLFCKALFKALGLNENDYKFGLTKVFFRPGKFAEFDQIMKSDPDHLAELVKRVNHWLTCSRWKKVQWCSLSVIKLKNKIKYRAEACIKMQKTIRMWLCKRRHKPRIDGLVKVGTLKKRLDKFNEVVSVLKDGKPEMNKQIKNLEISIDTLMAKIKSTMMTQEQIQKEYDALVKSSEELLSALQKKKQQEEEAERLRRIQEEMEKERKRREEDEKRRRKEEEERRMKLEMEAKRKQEEEERKKREDDEKRIQAEVEAQLARQKEEESQQQAVLEQERRDRELALRIAQSEAELISDEAQADLALRRSLDSYPVSKNDGTRPKMTPEQMAKEMSEFLSRGPAVLATKAAAGTKKYDLSKWKYAELRDTINTSCDIELLAACREEFHRRLKVYHAWKSKNKKRNTETEQRAPKSVTDYDFAPFLNNSPQQNPAAQIPARQREIEMNRQQRFFRIPFIRPADQYKDPQSKKKGWWYAHFDGPWIARQMELHPDKPPILLVAGKDDMEMCELNLEETGLTRKRGAEILPRQFEEIWERCGGIQYLQNAIESRQARPTYATAMLQSLLK
B2: Rab5 GDP/GTP exchange factor (Homo sapiens), Q9UJ41 (parent)
chain: MSLKSERRGIHVDQSDLLCKKGCGYYGNPAWQGFCSKCWREEYHKARQKQIQEDWELAERLQREEEEAFASSQSSQGAQSLTFSKFEEKKTNEKTRKVTTVKKFFSASSRVGSKKEIQEAKAPSPSINRQTSIETDRVSKEFIEFLKTFHKTGQEIYKQTKLFLEGMHYKRDLSIEEQSECAQDFYHNVAERMQTRGKVPPERVEKIMDQIEKYIMTRLYKYVFCPETTDDEKKDLAIQKRIRALRWVTPQMLCVPVNEDIPEVSDMVVKAITDIIEMDSKRVPRDKLACITKCSKHIFNAIKITKNEPASADDFLPTLIYIVLKGNPPRLQSNIQYITRFCNPSRLMTGEDGYYFTNLCCAVAFIEKLDAQSLNLSQEDFDRYMSGQTSPRKQEAESWSPDACLGVKQMYKNLDLLSQLNERQERIMNEAKKLEKDLIDWTDGIAREVQDIVEKYPLEIKPPNQPLAAIDSENVENDKLPPPLQPQVYAG

Variants of: B1
Details: with ubb_human UBB

| effect of a mutation on the interaction | Variant |
| --- | --- |
| decreasing interaction | A1013G |

Variants of: B2
Details: with ubb_human UBB

| effect of a mutation on the interaction | Variant |
| --- | --- |
| decreasing interaction | A58G |

Variants of: B2
Details: with ubb_human UBB
Remark: another data set of the same source

| effect of a mutation on the interaction | Variant |
| --- | --- |
| decreasing interaction | Y25F |

Reference: IntAct's records for PubMed 16499958
